Where two headings read alike, the source gives them in different places.
Experiments:
[1] = tested on: patients with atherosclerosis and evidence of carotid or aortic plaque inflammation; experiment: Phase IIa: arterial inflammation by FDG-PET/CT (index vessel MDS-TBR); assay type: in vivo, human; conditions: versus placebo; single (1245 mg IV) and multiple infusion groups
Experimental: The study enrolled 147 participants (83% male; mean age 63.0±9.0 years) with atherosclerosis and evidence of carotid or aortic plaque inflammation, measured by FDG-PET/computed tomography (CT). Because there is poor correlation between serum LDL levels and both serum and plaque oxLDL levels, patients were enrolled with a relatively wide range of serum LDL levels (fasting LDL>60 mg/dL at screening, which includes patients both above and below National Cholesterol Education Program Adult Treatment Panel III treatment goals). 139 patients completed the study.
The study consisted of a 28-day screening period, a 78-day treatment period, and a 90-day follow-up period. […] During the screening period, patient acceptability for the study was assessed on the basis of medical history, concomitant medications, physical examination, and clinical laboratory test results. Once a patient passed this initial screening phase, acceptability for study participation was confirmed on the basis of a TBR>1.8 in the qualifying vessel, as quantified by FDG-PET/CT. […]
The primary outcome variable was change in index vessel MDS-TBR (most diseased segment-target to background ratio) measured by FDG-PET/CT from baseline to week 12. Arterial FDG uptake was assessed as target to-background ratio (TBR). […]

B6.lpr.ApoE−/− mice = experiment: Carotid artery mRNA expression; assay type: in vivo, mouse; conditions: 1 mg i.p. weekly x3; vs control IgG
Experimental: Statistics: Clinical comparisons from human individuals were evaluated and statistically tested using SPSS software. For same-individual analyses, paired nonparametric Wilxocon rank test was used. For normally distributed data, Students t-test was used. For not normally distributed data, Mann-Whitney rank test was used. Numerical data is expressed as mean±standard deviation if normally distributed or median±intra-quartile range if not normally distributed. Carotid gene expressions were log transformed and expressed as arbitrary units (A.U) and relative fold change respectively. All data was plotted in GraphPad Prism and significance levels used are *=p<0.05 **=p<0.01, ***=p<0.001.

[2] = tested on: PBMC isolated from SLE patients; experiment: Uptake of DiI-oxLDL and cytokine release in SLE PBMC with MDA.P45-IgG; assay type: cell-based, human; conditions: 10 μg/ml antibody with 10 μg/ml labelled oxLDL, 24 hours
Experimental: Flow cytometry analysis of PBMCs stimulated with DIloxLDL and MDA.P45-IgG antibody: PBMCs were slowly thawed in 37° C. PBS with 2% autologous serum, counted and seeded into appropriate medium and conditions. Medium for each stimuli condition was prepared from complete RPMI (cRPMI, 10 U/ml Penicillin/streptomycin, 1% L-glutamine, 1% sodium pyruvate, 1% Hepes and 0.1% mercaptoethanol) with 2% autologous serum (Sigma Aldrich) including the respective stimuli conditions and pre-incubated in 37° C. for 1 h before stimulating the cells with it. Condition 1; unstimulated, condition 2; 10 μg/ml Dil-OxLDL (Thermo Scientific), condition 3; 10 μg/ml Dil-OxLDL with MDA.P45-IgG. (Dil-OxLDL refers to oxidized LDL complexed with Dil dye).
At time of experiment, cells were slowly thawed in 37° C. PBS containing 2% autologous serum. Cells were counted and all cells obtained were divided into three wells for respective condition mentioned above for 24 h at 37° C. in 5% CO2. After 24 h stimulation, medium was harvested and kept in −80° C. until cytokine analysis. Cells were washed twice in FACS buffer (PBS 1% bovine serum albumin […] EDTA), then stained with Zombie Aqua viability dye for 20 minutes in room temperature (RT). This was followed by another wash then incubation with anti-HLA-DR APC-Cy7 anti-CD3-PECy7 and anti-CD14-AF700 for 30 minutes in RT prior acquisition in Gallios flow cytometer (Beckman Coulter, Brea, Calif., USA). Cell populations were manually gated in FlowJo LTT (Tree Star, San Diego, Calif., USA).
Multiplex analysis of PBMC cell culture medium: Cell culture medium from human SLE and control PBMCs were thawed on ice before analyzed using Multiplex Inflammation assay (Merck, Millipore, Burlington, Mass., USA) according to following kit instructions.
Having observed the protective effect of MDA-p45 IgG on atherosclerosis development in B6.lpr.ApoE−/− mice, we next investigated how this antibody affected the interaction of SLE PBMC with oxLDL. We incubated the cells with 10 μg/ml of fluorescently labelled oxLDL for 24 hours with and without addition of 10 μg/ml MDA-p45 IgG.

[3] = in vivo
[4] = in vivo, iv
Source text: Random allocation was stratified by T2DM status and pre-diabetes status, presence of elevated screening tissue-to-background ratio TBR>2), and study site.

[5] = in vivo; remark: listed apart in the source

## orticumab: recombinant human IgG1 against MDA-modified peptide 45 of ApoB100; heavy chain SEQ ID NO: 316, light chain SEQ ID NO: 317
[1]
  arterial inflammation (index vessel MDS-TBR), baseline to week 12: did not significantly reduce
B6.lpr.ApoE−/− mice
  mRNA expression of IL-10 or MCP-1 in carotid arteries: no effect
[2]
  cellular uptake of oxLDL: increased cellular uptake
  expression of CD14 and uptake of oxLDL in CD14+ APC: increased
  release of anti-inflammatory cytokine IL-1RA: modest increase
[3]
  SAEs during the study: no SAEs
[3]; sc
  most frequently reported TEAEs: mild intensity local site reactions
[4]
  Cmax D 1: 297 μ/mL
[5]
  C ≥ 1 μg/mL: Day 57
  C ≥ 4 μg/mL: Day 15
  C ≥ 12 μg/mL: Day 8
[5]; iv, 360 mg
  t1/2: 20.3 (2.91) d
[5]; sc
  C ≥ 1 μg/mL: Day 43
  C ≥ 4 μg/mL: Day 15

From patent US10858422B2, “Methods for treating systemic lupus erythematosus with an anti-apolipoprotein B antibody” (Abcentra, LLC, priority 2016, dated 2020)
